According to paper PMC6954390, “Negative cooperativity between Gemin2 and RNA provides insights into RNA selection and the SMN complex's release in snRNP assembly” (Nucleic Acids Research, 2019):

Experiments:
Gemin2ΔN39 = target: T1, Gemin2ΔN39 (human, UniProt O14893 40-280); experiment: crystal structure; Complexes A, B and C; hanging-drop vapor diffusion at 20°C, 1-6% PEG8000, 100 mM Tris-HCl pH 7.5-8.2; solved by molecular replacement with PDB 3S6N; conditions: both partners purified
T1 construct: Gemin2, human, N-terminal 39 residues deleted (residues 40-280 left); also called Gemin2 residues 40–280; source: coexpressed with SMN_(Ge2BD) (pCDF-HT-Gemin2ΔN39); not shown: His6, N-terminal, cleaved
T1 sequence (looked up): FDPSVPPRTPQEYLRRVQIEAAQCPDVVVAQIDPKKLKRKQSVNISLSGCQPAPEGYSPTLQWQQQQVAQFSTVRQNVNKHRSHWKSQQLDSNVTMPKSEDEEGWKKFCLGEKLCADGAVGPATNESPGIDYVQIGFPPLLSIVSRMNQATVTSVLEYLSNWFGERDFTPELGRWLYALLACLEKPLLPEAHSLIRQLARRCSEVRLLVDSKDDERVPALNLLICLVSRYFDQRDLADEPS

Gemin2 (full-length) = target: T2, Gemin2 (full-length) (human, UniProt O14893 1-280); experiment: as above; conditions: both partners purified
T2 construct: Gemin2, human, full length; source: coexpressed with SMN_(Ge2BD) (pCDF-HT-Gemin2); not shown: His6, N-terminal, cleaved
T2 sequence (looked up): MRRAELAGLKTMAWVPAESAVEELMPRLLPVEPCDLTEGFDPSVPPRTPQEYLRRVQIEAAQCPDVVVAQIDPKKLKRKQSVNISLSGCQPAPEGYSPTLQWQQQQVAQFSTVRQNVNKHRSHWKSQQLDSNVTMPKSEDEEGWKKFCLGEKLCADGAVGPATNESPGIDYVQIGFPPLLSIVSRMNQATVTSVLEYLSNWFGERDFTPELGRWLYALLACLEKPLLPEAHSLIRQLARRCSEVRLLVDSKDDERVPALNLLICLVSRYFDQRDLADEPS

binding result (Gemin2ΔN39): binds
binding result (Gemin2 (full-length)): binds
B1: SMN_(Ge2BD), SMN residues 26–62 (domain or fragment, human, UniProt Q16637 26-62, looked up)
chain: GQSDDSDIWDDTALIKAYDKAVASFKHALKNGDICET
notes: also called SMN(26-62); SMN (26–62) peptide; source: coexpressed with Gemin2 or Gemin2ΔN39 (pET21-HMT-SMN_(Ge2BD)); not shown: His6, N-terminal, cleaved; MBP, N-terminal, cleaved
